What was measured:
[1] = target: T1, MBP-TDF1 (Arabidopsis thaliana) (UniProt Q9LSI7); assay: EMSA; conditions: 10 mM Tris-HCl pH 7.5, 50 mM KCl, 1 mM DTT, 20 uL, room temperature 20 min; 6% polyacrylamide, 0.5x TBE
T1 sequence: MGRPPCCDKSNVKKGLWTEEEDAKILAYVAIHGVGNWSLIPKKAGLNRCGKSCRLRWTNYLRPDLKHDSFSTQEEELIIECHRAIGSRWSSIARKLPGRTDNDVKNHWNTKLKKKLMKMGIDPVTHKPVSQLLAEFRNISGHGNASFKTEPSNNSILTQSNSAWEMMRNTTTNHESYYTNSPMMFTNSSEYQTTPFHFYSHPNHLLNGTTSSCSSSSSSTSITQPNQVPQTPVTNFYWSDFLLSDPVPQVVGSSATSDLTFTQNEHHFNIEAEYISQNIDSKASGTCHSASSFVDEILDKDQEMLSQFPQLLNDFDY

[2] = target: T1, MBP-TDF1 (Arabidopsis thaliana); assay: competition; conditions: 10 mM Tris-HCl pH 7.5, 50 mM KCl, 1 mM DTT, 20 uL, room temperature 20 min; 6% polyacrylamide, 0.5x TBE

Q: Which results are given for “TACGTGATTAGGATTTGTAACCACGTAGACGTGTAAAACAAAATTACTTTTTTATCTGTGATTTATAGGAATTTGAGATTTGAATGCAACGTTGTTGTTTCATCTAACAATAAGTGATGAAGAACTTCAAAAGTCTAAAACCATATCATTTATAAAATCA (double strand) [SKS18 promoter 18-2 probe]”?
A: binding [1]: binds; binding [2]: binds

Reference: article PMC10118275
